# Assay results: patent US20260015434A1, “ANTIBODY MATERIALS AND METHODS TARGETING MICROBIAL POLYSACCHARIDES” (priority 2022, published 2026)
# Changes are numbered by the printed parent chain. Numbers in names are those of the source.
# B1: TG10 W38A: TG10 HC W38A (SEQ ID NO: 47) with TG10 LC (SEQ ID NO: 12) (antibody, V domains shown)
# VH: EVQLVESGGGLVQPGGSLRLSCAVSGFPFSSYAMSWVRQAPGKGLEWVANIKEDGSEKYYVDSVKGRFTISRDNAKNSLYLQMNSLRAEDTAVYYCATDPDVGLSDSWGQGTLVTVSS
# VL: EIVLTQSPGTLSLSPGDRATHSCRASQSVSRSYLAWYQQKPGQTPRLFIYGASNRATGIPDRFSGSGSGTYFTLTISRLEPEDFAVYYCQQYDSAPDTFGQGTRLEIK
# modifications: Site directed mutatation of TG10 HC Variable Region; TG10 Light Chain Variable Region
# B2: TG10 D109K: TG10 HC D109K (SEQ ID NO: 48) with TG10 LC (SEQ ID NO: 12) (antibody, V domains shown)
# VH: B1 VH with A33W, D101K
# VL: B1 VL
# modifications: Site directed mutatation of TG10 HC Variable Region; TG10 Light Chain Variable Region
# B3: TG10 D107A: TG10 HC D107A (SEQ ID NO: 41) with TG10 LC (SEQ ID NO: 12) (antibody, V domains shown)
# VH: B1 VH with A33W, D99A
# VL: B1 VL
# modifications: Site directed mutation of TG10 HC Variable Region; TG10 Light Chain Variable Region
# B4: TG10 LC Y38A: TG10 HC (SEQ ID NO: 3) with TG10 LC Y38A (SEQ ID NO: 43) (antibody, V domains shown)
# VH: B1 VH with A33W
# VL: EIVLTQSPGTLSLSPGDRATHSCRASQSVSRSALAWYQQKPGQTPRLFIYGASNRATGIPDRFSGSGSGTYFTLTISRLEPEDFAVYYCQQYDSAPDTFGQGTRLEIKLC
# modifications: TG10 Heavy Chain Variable Region; Site directed mutation of TG10 LC Variable Region
# B5: TG10 E57A: TG10 HC E57A (SEQ ID NO: 37) with TG10 LC (SEQ ID NO: 12) (antibody, V domains shown)
# VH: B1 VH with A33W, E53A
# VL: B1 VL
# modifications: Site directed mutation of TG10 HC Variable Region; TG10 Light Chain Variable Region
# B6: TG10 D109A: TG10 HC D109A (SEQ ID NO: 42) with TG10 LC (SEQ ID NO: 12) (antibody, V domains shown)
# VH: B1 VH with A33W, D101A
# VL: B1 VL
# modifications: Site directed mutatation of TG10 HC Variable Region; TG10 Light Chain Variable Region
# B7: TG10 D116A: TG10 HC D116A (SEQ ID NO: 34) with TG10 LC (SEQ ID NO: 12) (antibody, V domains shown)
# VH: B1 VH with A33W, D106A
# VL: B1 VL
# modifications: Site directed mutation of TG10 HC Variable Region; TG10 Light Chain Variable Region
# B8: TG10 Y66A: TG10 HC Y66A (SEQ ID NO: 38) with TG10 LC (SEQ ID NO: 12) (antibody, V domains shown)
# VH: B1 VH with A33W, Y59A
# VL: B1 VL
# modifications: Site directed mutation of TG10 HC Variable Region; TG10 Light Chain Variable Region
# B9: TG10 Y37A: TG10 HC Y37A (SEQ ID NO: 31) with TG10 LC (SEQ ID NO: 12) (antibody, V domains shown)
# VH: B1 VH with Y32A, A33W
# VL: B1 VL
# modifications: Site directed mutation of TG10 HC Variable Region; TG10 Light Chain Variable Region
# B10: 120 × TG: 1467120 HC (SEQ ID NO: 45) with TG10 LC (SEQ ID NO: 12) (antibody, V domains shown)
# VH: B1 VH with E1Q, V24A, P28T, A33W, E53Q, T98R, D101E, V102G, S105P, S107Y
# VL: B1 VL
# modifications: Based on an antibody sequence.; TG10 Light Chain Variable Region
# B11: 729 × TG: 15729 HC (SEQ ID NO: 44) with TG10 LC (SEQ ID NO: 12) (antibody, V domains shown)
# VH: B1 VH with V24A, P28T, A33W, E53Q, T98R, V102G, G103R, L104I, S105F, S107Y
# VL: B1 VL
# modifications: Based on an antibody sequence.; TG10 Light Chain Variable Region
# B12: TG10 V110R: TG10 HC V110R (SEQ ID NO: 39) with TG10 LC (SEQ ID NO: 12) (antibody, V domains shown)
# VH: B1 VH with A33W, V102R
# VL: B1 VL
# modifications: Site directed mutation of TG10 HC Variable Region; TG10 Light Chain Variable Region
# B13: TG10 LC Y55A: TG10 HC (SEQ ID NO: 3) with TG10 LC Y55A (SEQ ID NO: 40) (antibody, V domains shown)
# VH: B1 VH with A33W
# VL: B1 VL with Y50A
# modifications: TG10 Heavy Chain Variable Region; Site directed mutation of TG10 LC Variable Region
# B14: TG10 P108A: TG10 HC P108A (SEQ ID NO: 36) with TG10 LC (SEQ ID NO: 12) (antibody, V domains shown)
# VH: B1 VH with A33W, P100A
# VL: B1 VL
# modifications: Site directed mutation of TG10 HC Variable Region; TG10 Light Chain Variable Region
# B15: 285 × TG: 4488285 HC (SEQ ID NO: 46) with TG10 LC (SEQ ID NO: 12) (antibody, V domains shown)
# VH: B1 VH with V24A, P28T, A33W, E53Q, T98R, D101Y, V102M, S105I, S107Y
# VL: B1 VL
# modifications: Based on an antibody sequence.; TG10 Light Chain Variable Region
# B16: ADI-45379: Original clone from screen; HC SEQ ID NO: 1, LC SEQ ID NO: 2 (antibody, listed as Homo sapiens, V domains shown)
# VH: B1 VH with V5L, A33W
# VL: B1 VL with I2T, V3T, G9A
# System: PNAG conjugates on the array (dPNAG, PNAG and intermediate levels of deacetylation)
# Assay: Neoglycoprotein (glycan) microarray binding, 816-component array
# Conditions: single point mutations
# Protocol: (§1) Neoglycoprotein (NGP) microarray fabrication was performed as follows. Several NGP microarrays were constructed as previously described. Two large arrays (8 duplicate arrays per slide) composed of 815 and 870 neoglycoproteins, glycoproteins, glycopeptide conjugates, and controls were constructed and used for the experiments in this report. Additionally, a PNAG-focused array (16 duplicates per slide) with 49 array components was fabricated and used to determine apparent KD values. Array component parent stocks were diluted to 125-200 μg/mL into print buffer (1×PBS buffer with 2.5% (v/v) glycerol, 0.0005% (v/v) Triton-X 100, 0.0005 μg/mL soluble print dye 0.05 μg/mL Atto 532 (Sigma 06699). Formulated components were printed in duplicate onto 2D-Epoxy functionalized glass slides (Poly-An #104-00-221) or SuperEpoxy 2 microarray slides (ArrayIt) using an Arrayit NanoPrint LM60 arrayer at 60% humidity. Following the print, slides were scanned in a microarray fluorescence scanner (Innopsys, InnoScan 1100 AL) to validate that array components were successfully deposited onto the slide surface. Binding profiles for a representative set of lectins and antibodies were used as QC for each printed microarray batch. The printed NGP microarrays were stored under vacuum at −20° C.
# (§2) Antibody selectivity and apparent KD were determined using a NGP microarray. A pre-assay scan was performed to control for missing features. Selectivity and affinity of most mAbs were measured on the full array. A focused array was used to acquire an apparent KD measurement. A slide module (8 well for full array and 16-well for focused array) was mounted onto each slide and blocking buffer (3% BSA in PBS, pH 7.4) was applied to each well of the array. Blocking was performed overnight at 4° C. mAbs were serial diluted in binding buffer (1% BSA in PBST, pH 7.4). Following the block, wells were washed 4× with wash buffer (PBST, PBS with 0.05% tween-20). Primary mAb incubation was performed for 2.5 hours at 37° C. The wells were washed 5× with wash buffer. A CY3-labeled secondary antibody specific for the Fc portion of human IgG was diluted 500 fold into binding buffer and added to each array well (Jackson ImmunoResearch, 109-165-098). Secondary mAb incubation was performed for 1.5 hours at 37° C. Wells were washed 5× with wash buffer. Slides were removed from the slide module and submerged in wash buffer for 5 minutes. Washed slides were dried by centrifugation @ 1000×g in a centrifuge quipped with a swing bucket rotor. Fluorescent scans were obtained at multiple PMT values to maximize dynamic range. Raw data was analyzed using GenePix 7.0 software as previously described. Selectivity profiles and apparent KD curves were plotted in excel and Graphpad Prism. Apparent Kos were determined using one-site specific binding algorithm in Graphpad Prism.
row,Molecule,function of TG10 variant (binding to PNAG conjugates on the array)
1,B1,functionally dead
2,B2,functionally dead
3,B3,functionally dead
4,B4,functionally dead

# System: PNAG 0 (fully deacetylated glucosamine pentasaccharide conjugate)
# Assay: Glycan microarray binding / apparent KD
# Conditions: fully deacetylated PNAG conjugate PNAG 0
# Protocol: as §1, §2
row,Molecule,effect of single point mutation on binding between TG10 and PNAG 0
1,B1,completely removed binding
2,B2,completely removed binding
3,B5,greatly reduce
4,B3,completely removed binding
5,B4,completely removed binding
6,B6,greatly reduce

# System: PNAG conjugates on the array (dPNAG, PNAG and intermediate levels of deacetylation)
# Assay: Neoglycoprotein (glycan) microarray binding, 816-component array
# Conditions: ability to bind both dPNAG and PNAG and intermediate levels of deacetylation
row,Molecule,PNAG Binding on Array
1,B1,No
2,B2,No
3,B5,Yes
4,B7,Yes
5,B8,Yes
6,B9,Yes
7,B10,No
8,B11,No
9,B12,Yes
10,B13,Yes
11,B14,Yes
12,B15,No
13,B16,Yes
